Measurements taken from the supplement of paper PMC5998384.

How the values were obtained:
HeLa Kyoto [1] = test: solubility change mitosis vs G1/S (difference of NP-40 vs SDS log2 ratios) (log2 ratio difference); higher = more soluble in mitosis
HeLa Kyoto [2] = test: solubility in G1/S (NP-40 vs SDS abundance) (log2 ratio); higher = more soluble; settings: cell cycle stage: G1/S
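Throughout, for solubility change mitosis vs G1/S (difference of NP-40 vs SDS log2 ratios): synchronized HeLa Kyoto cells (double thymidine block for G1/S, nocodazole release for mitosis), protein amounts in NP-40 versus SDS lysates quantified by mass spectrometry, three biological replicates.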
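Throughout, for solubility in G1/S (NP-40 vs SDS abundance): HeLa Kyoto cells arrested at G1/S by double thymidine block, proteins quantified by TMT10plex mass spectrometry in mild NP-40 versus SDS extracts, three biological replicates.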

Sequence	solubility change mitosis (log2) (HeLa Kyoto [1])	solubility in G1/S (log2) (HeLa Kyoto [2])
MSQGPPTGESSEPEAKVLHTKRLYRAVVEAVHRLDLILCNKTAYQEVFKPENISLRNKLRELCVKLMFLHPVDYGRKAEELLWRKVYYEVIQLIKTNKKHIHSRSTLECAYRTHLVAGIGFYQHLLLYIQSHYQLELQCCIDWTHVTDPLIGCKKPVSASGKEMDWAQMACHRCLVYLGDLSRYQNELAGVDTELLAERFYYQALSVAPQIGMPFNQLGTLAGSKYYNVEAMYCYLRCIQSEVSFEGAYGNLKRLYDKAAKMYHQLKKCETRKLSPGKKRCKDIKRLLVNFMYLQSLLQPKSSSVDSELTSLCQSVLEDFNLCLFYLPSSPNLSLASEDEEEYESGYAFLPDLLIFQMVIICLMCVHSLERAGSKQYSAAIAFTLALFSHLVNHVNIRLQAELEEGENPVPAFQSDGTDEPESKEPVEKEEEPDPEPPPVTPQVGEGRKSRKFSRLSCLRRRRHPPKVGDDSDLSEGFESDSSHDSARASEGSDSGSDKSLEGGGTAFDAETDSEMNSQESRSDLEDMEEEEGTRSPTLEPPRGRSEAPDSLNGPLGPSEASIASNLQAMSTQMFQTKRCFRLAPTFSNLLLQPTTNPHTSASHRPCVNGDVDKPSEPASEEGSESEGSESSGRSCRNERSIQEKLQVLMAEGLLPAVKVFLDWLRTNPDLIIVCAQSSQSLWNRLSVLLNLLPAAGELQESGLALCPEVQDLLEGCELPDLPSSLLLPEDMALRNLPPLRAAHRRFNFDTDRPLLSTLEESVVRICCIRSFGHFIARLQGSILQFNPEVGIFVSIAQSEQESLLQQAQAQFRMAQEEARRNRLMRDMAQLRLQLEVSQLEGSLQQPKAQSAMSPYLVPDTQALCHHLPVIRQLATSGRFIVIIPRTVIDGLDLLKKEHPGARDGIRYLEAEFKKGNRYIRCQKEVGKSFERHKLKRQDADAWTLYKILDSCKQLTLAQGAGEEDPSGMVTIITGLPLDNPSVLSGPMQAALQAAAHASVDIKNVLDFYKQWKEIG [SMG5]	-0.207	-0.176
MSRKISKESKKVNISSSLESEDISLETTVPTDDISSSEEREGKVRITRQLIERKELLHNIQLLKIELSQKTMMIDNLKVDYLTKIEELEEKLNDALHQKQLLTLRLDNQLAFQQKDASKYQELMKQEMETILLRQKQLEETNLQLREKAGDVRRNLRDFELTEEQYIKLKAFPEDQLSIPEYVSVRFYELVNPLRKEICELQVKKNILAEELSTNKNQLKQLTETYEEDRKNYSEVQIRCQRLALELADTKQLIQQGDYRQENYDKVKSERDALEQEVIELRRKHEILEASHMIQTKERSELSKEVVTLEQTVTLLQKDKEYLNRQNMELSVRCAHEEDRLERLQAQLEESKKAREEMYEKYVASRDHYKTEYENKLHDELEQIRLKTNQEIDQLRNASREMYERENRNLREARDNAVAEKERAVMAEKDALEKHDQLLDRYRELQLSTESKVTEFLHQSKLKSFESERVQLLQEETARNLTQCQLECEKYQKKLEVLTKEFYSLQASSEKRITELQAQNSEHQARLDIYEKLEKELDEIIMQTAEIENEDEAERVLFSYGYGANVPTTAKRRLKQSVHLARRVLQLEKQNSLILKDLEHRKDQVTQLSQELDRANSLLNQTQQPYRYLIESVRQRDSKIDSLTESIAQLEKDVSNLNKEKSALLQTKNQMALDLEQLLNHREELAAMKQILVKMHSKHSENSLLLTKTEPKHVTENQKSKTLNVPKEHEDNIFTPKPTLFTKKEAPEWSKKQKMKT [PIBF1]	0.297	0.069
MSRRPCSCALRPPRCSCSASPSAVTAAGRPRPSDSCKEESSTLSVKMKCDFNCNHVHSGLKLVKPDDIGRLVSYTPAYLEGSCKDCIKDYERLSCIGSPIVSPRIVQLETESKRLHNKENQHVQQTLNSTNEIEALETSRLYEDSGYSSFSLQSGLSEHEEGSLLEENFGDSLQSCLLQIQSPDQYPNKNLLPVLHFEKVVCSTLKKNAKRNPKVDREMLKEIIARGNFRLQNIIGRKMGLECVDILSELFRRGLRHVLATILAQLSDMDLINVSKVSTTWKKILEDDKGAFQLYSKAIQRVTENNNKFSPHASTREYVMFRTPLASVQKSAAQTSLKKDAQTKLSNQGDQKGSTYSRHNEFSEVAKTLKKNESLKACIRCNSPAKYDCYLQRATCKREGCGFDYCTKCLCNYHTTKDCSDGKLLKASCKIGPLPGTKKSKKNLRRL [FBXO5]	0.249	0.273
